Patent US20260001935

System: aflibercept
Sequence (chain, as listed by the source): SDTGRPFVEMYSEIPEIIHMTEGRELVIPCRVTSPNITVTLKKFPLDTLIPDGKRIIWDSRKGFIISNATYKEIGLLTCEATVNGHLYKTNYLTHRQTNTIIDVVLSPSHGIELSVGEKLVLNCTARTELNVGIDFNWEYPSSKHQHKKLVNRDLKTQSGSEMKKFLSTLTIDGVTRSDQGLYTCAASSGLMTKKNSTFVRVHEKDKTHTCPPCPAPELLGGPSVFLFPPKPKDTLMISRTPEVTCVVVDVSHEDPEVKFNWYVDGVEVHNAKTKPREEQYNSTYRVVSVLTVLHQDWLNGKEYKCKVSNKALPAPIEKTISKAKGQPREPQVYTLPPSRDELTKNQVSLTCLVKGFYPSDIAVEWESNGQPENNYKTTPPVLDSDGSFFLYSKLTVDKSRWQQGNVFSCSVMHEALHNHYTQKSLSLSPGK

Chain of cathepsin D (Chinese hamster ovary host cell protein; recombinant CHO Cathepsin D with mmh tag) (chain, as listed by the source): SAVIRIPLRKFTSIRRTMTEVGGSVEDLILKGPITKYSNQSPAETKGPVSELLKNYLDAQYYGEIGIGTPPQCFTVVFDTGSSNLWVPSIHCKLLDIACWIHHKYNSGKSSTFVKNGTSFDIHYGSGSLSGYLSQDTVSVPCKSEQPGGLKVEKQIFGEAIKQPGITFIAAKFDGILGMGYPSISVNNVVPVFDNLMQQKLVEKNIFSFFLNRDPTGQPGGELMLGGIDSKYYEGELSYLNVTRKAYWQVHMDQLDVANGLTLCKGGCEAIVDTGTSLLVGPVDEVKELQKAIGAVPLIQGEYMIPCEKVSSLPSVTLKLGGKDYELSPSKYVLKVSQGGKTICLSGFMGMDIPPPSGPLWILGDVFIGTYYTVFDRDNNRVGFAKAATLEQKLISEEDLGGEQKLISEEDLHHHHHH

## cathepsin D (Chinese hamster ovary host cell protein; recombinant CHO Cathepsin D with mmh tag)
  NR-1 band formation, and Y/L cleavage: the results demonstrated a correlation between spiked-in cathepsin D and NR-1 band formation, and Y/L cleavage
